# From patent publication US20150183884A1 (NATIONAL HEALTH RESEARCH INSTITUTES, published 2015)
# B1: EN10 mAb (antibody, V domains shown)
# VH: EVQLQQSGPELVKPGASVKMSCKASGYTFTSCVMNWVKQKPGQGLEWIGYINPYNDGTKYNEKFKGKATLTSDKSSSTAYMELSSLTSEDSAVYYCAREGFYYGNFDNWGQGTTLTVSS
# VL: DIQMTQSPASLSASVGETVTITCRASENIYSYLTWYQQKQGKSPQLLVYNAKTLPEGVPSRFSGSGSGTQFSLKINSLQPEDFGSYYCQHHYGTPYTFGGGTKLEITR
# notes: also called clone 10; anti-human ENO1 antibody clones 10
# What was measured:
# [1] = molecular target: T1, BSA (bovine, UniProt P02769); assay: ELISA, BSA as background
# T1 construct: also called BSA background
# Description: This reaction solution was subjected to 2% agarose gel electrophoresis to analyze the reaction products. Reaction products with the correct molecular weights were ligated into a pCR 2.1-TOPO vector (manufactured by Invitrogen) for subcloning in accordance with the attached instruction manual. M13 forward (5′-[…]-3′(SEQ ID NO: 11) and M13 reverse (5′-CAG GAAACA GCT ATG AC-3′ (SEQ ID NO: 12)) primers were then used to determine the nucleotide sequence. Every mutation clone with the correct sequences was digested with restriction enzymes BamHI and XhoI, and the digestion products were subjected to 2% agarose gel electrophoresis. The insertion fragment of each mutant was cut from the agarose gel and purified with a Gene Clean Kit in accordance with the attached instruction manual provided by the manufacturer (BIO101). The BamHI and XhoI DNA fragment of each mutant was ligated to the BamHI and XhoI sites of an E. coli expression vector pTRC His A (Invitrogen). The resulting plasmid was transformed into E. coli BL21 Rosseta. The ENO1 mutation protein was expressed in E. coli by IPTG induction and purified by Ni-agarose in accordance with the attached instruction manual provided by the manufacturer (Qiagen) after the bacteria pellet was sonicated. The purity of each mutant was analyzed by 12% SDS PAGE. […] The binding affinity was determined by the readings of OD 405. […]
# [2] = molecular target: ENO1 deletion mutant Δ1-189 (human) (UniProt P06733); assay: ELISA on coated mutant protein, 10 microgram EN10 mAb
# [3] = molecular target: ENO1 deletion mutant Δ1-297 (human) (UniProt P06733); assay: as above
# [4] = molecular target: ENO1 deletion Δ297-434 mutant (human) (UniProt P06733); assay: ELISA on coated ENO1 protein or mutant, 10 microgram EN10 mAb
# Sequence of ENO1 deletion Δ297-434 mutant (human) (P06733 1-296, stated change not applied): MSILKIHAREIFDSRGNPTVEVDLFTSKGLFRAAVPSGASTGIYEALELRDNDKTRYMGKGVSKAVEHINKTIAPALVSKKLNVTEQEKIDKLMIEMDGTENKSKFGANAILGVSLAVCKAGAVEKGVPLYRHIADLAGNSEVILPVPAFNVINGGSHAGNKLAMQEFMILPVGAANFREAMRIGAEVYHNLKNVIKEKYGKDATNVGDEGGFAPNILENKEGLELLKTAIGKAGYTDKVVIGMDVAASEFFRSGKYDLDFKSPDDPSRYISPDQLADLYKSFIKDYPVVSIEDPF
# T1 sequence (P02769 25-607 limits assumed): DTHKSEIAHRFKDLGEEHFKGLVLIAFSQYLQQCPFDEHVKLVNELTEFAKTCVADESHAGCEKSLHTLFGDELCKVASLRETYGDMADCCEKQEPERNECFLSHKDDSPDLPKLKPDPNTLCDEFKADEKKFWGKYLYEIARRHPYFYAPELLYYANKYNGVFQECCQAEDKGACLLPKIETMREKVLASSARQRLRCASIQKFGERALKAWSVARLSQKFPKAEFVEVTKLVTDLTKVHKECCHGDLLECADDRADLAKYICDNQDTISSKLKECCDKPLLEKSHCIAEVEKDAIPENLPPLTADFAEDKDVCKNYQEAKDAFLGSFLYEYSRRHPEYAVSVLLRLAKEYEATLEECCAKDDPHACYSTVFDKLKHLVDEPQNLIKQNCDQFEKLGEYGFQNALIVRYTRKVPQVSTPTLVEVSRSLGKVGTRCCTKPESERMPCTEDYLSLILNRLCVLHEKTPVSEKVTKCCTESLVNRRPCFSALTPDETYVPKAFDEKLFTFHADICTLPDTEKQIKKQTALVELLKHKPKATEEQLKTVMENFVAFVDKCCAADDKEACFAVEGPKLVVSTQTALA
binder,measurement,setting,value
B1,binding result,[1],no binding (tested: 10 microgram EN10 mAb (amount))
same,OD405,[2],1.43 OD405
same,percent of the OD405 of wild type ENO1,[2],42%
same,OD405,[3],1.56 OD405
same,percent of the OD405 of wild type ENO1,[3],39%
same,OD450,[4],0.47
